Key:
[1] = Insulin lispro pharmacokinetics after pump bolus during euglycemic clamp over 7 days of infusion set wear; assay type: in vivo, human (participants with type 1 diabetes mellitus); settings: for AUC0–300 (area under the insulin concentration curve, 0 to 300 min) / Cmax (maximum insulin concentration) / MRT (mean residence time) / t50% (early) (time to reach 50% of Cmax before peak) / t50% (late) (time to reach 50% of Cmax after peak) / tmax (time to maximum insulin concentration): 0.15 U/kg SC bolus by pump, plasma ELISA, median (25th–75th)
Text: (§1) We performed a prospectively enrolled randomized sequence two-way crossover study of the investigational CBX (Capillary Biomedical, Inc., Irvine, CA) and a commercial angled Teflon (MiniMed™ Silhouette™; Medtronic Diabetes Care, Northridge, CA; indicated for 3-day use) IIS for two weeklong home use periods with four in-patient euglycemic clamp sessions during each of the 7-day periods. Between the two periods, there was a wash out of 14 days (Supplementary Fig. S1).
Euglycemic clamp experiments were performed at AMCR Institute (in Escondido, CA.) on days 0, 3, 5, and 7 in each treatment period (eight clamps per participant). Participants were admitted to AMCR the evening before the clamp study and glucose was stabilized overnight with intravenous (IV) insulin or glucose as needed. Personal pumps were set to 0.1 U/h overnight and throughout the clamp experiment. Once glucose was stable (95 ± 15 mg/dL) in the morning, IV insulin was stopped 20 min before administering a bolus of 0.15 U/kg of insulin lispro (Eli Lilly, Indianapolis, IN) by pump. Glucose was clamped at 95 ± 15 mg/dL for 300 min or terminated early if runaway hyperglycemia occurred.
Per participant and clamp, 30 plasma samples were collected in regular intervals and stored at −70°C. Samples were analyzed elsewhere (Northern Lights Mercodia Lispro ELISA, Mercodia AB, Uppsala, Sweden; lowest limit of quantification (LLOQ) = 1.0 mU/L, 94% accuracy[7]). Owing to the small sample size and the intrinsically greater variability in pharmacodynamic measures, the PK results are the only results detailed in this report.
PK parameters (area under the insulin concentration curve [AUC] over the first 60 or 300 min, respectively; time to maximum insulin concentration [tmax]; maximum insulin concentration [Cmax]; time to half-maximum insulin concentration, early and late [t50%], and mean residence time [MRT]) were tested for treatment effects. […] Estimated means were then back transformed and the ratio between treatments/days (equality means a ratio of 1) tested for significance using mixed model for repeated measures (two-sided, α = 0.05). For simplicity reasons, all data are presented as median (25th–75th percentiles) or mean ± standard deviation.

[2] = Adverse events during the crossover clamp study; assay type: in vivo, human (participants with type 1 diabetes mellitus); settings: both IIS types
Text: as §1
WCG IRB approved the protocol and all associated documents used by participants before initiation of the study (Study No. 1283383) and during the study were registered in clinicaltrials.gov (NCT04398030). Participants aged 18–70 years, diagnosed with type 1 diabetes mellitus, and using rapid-acting insulin analog delivered through a Medtronic MiniMed insulin pump (model 530 or higher; Medtronic Diabetes Care) for at least 6 months were enrolled.

[3] = day 0 of IIS wear, CBX IIS, n = 6
[4] = day 0 of IIS wear, Control IIS, n = 6
[5] = day 3 of IIS wear, CBX IIS, n = 6
[6] = day 3 of IIS wear, Control IIS, n = 6
[7] = day 5 of IIS wear, CBX IIS, n = 6
[8] = day 5 of IIS wear, Control IIS, n = 6
[9] = day 7 of IIS wear, CBX IIS, n = 5
[10] = day 7 of IIS wear, Control IIS, n = 5

Question: Which results are given for insulin lispro?
Answer: acceleration of median tmax by day 7 vs day 0 ([1]; Control group): 63%; increase of median early exposure (AUC0–60) by day 7 vs day 0 ([1]; Control group): 34%; decline of median total insulin exposure (AUC0–300) from days 0 to 7 ([1]; Control group, n.s.): 26%; AUC0–300 (area under the insulin concentration curve, 0 to 300 min) [1, 3]: 8562 (6576–11416) mU/(min·L); Cmax (maximum insulin concentration) [1, 3]: 60.4 (33.5–73.6) mU/L; MRT (mean residence time) [1, 3]: 129.5 (117.1–137.5) min; t50% (early) (time to reach 50% of Cmax before peak) [1, 3]: 23.3 (11.8–34.1) min; t50% (late) (time to reach 50% of Cmax after peak) [1, 3]: 163.1 (157.3–181.8) min; tmax (time to maximum insulin concentration) [1, 3]: 65.0 (50.0–90.0) min; AUC0–300 (area under the insulin concentration curve, 0 to 300 min) [1, 4]: 8894 (7599–9870) mU/(min·L); Cmax (maximum insulin concentration) [1, 4]: 61.9 (45.0–82.5) mU/L; MRT (mean residence time) [1, 4]: 118.0 (97.9–131.0) min; t50% (early) (time to reach 50% of Cmax before peak) [1, 4]: 27.4 (19.8–32.7) min; t50% (late) (time to reach 50% of Cmax after peak) [1, 4]: 156.5 (121.2–174.5) min; tmax (time to maximum insulin concentration) [1, 4]: 67.5 (45.0–80.0) min; AUC0–300 (area under the insulin concentration curve, 0 to 300 min) [1, 5]: 8281 (7176–10737) mU/(min·L); Cmax (maximum insulin concentration) [1, 5]: 69.0 (56.2–71.5) mU/L; MRT (mean residence time) [1, 5]: 114.4 (105.9–116.9) min; t50% (early) (time to reach 50% of Cmax before peak) [1, 5]: 18.0 (11.2–19.2) min; t50% (late) (time to reach 50% of Cmax after peak) [1, 5]: 135.4 (120.4–150.0) min; tmax (time to maximum insulin concentration) [1, 5]: 42.5 (35.0–45.0) min; AUC0–300 (area under the insulin concentration curve, 0 to 300 min) [1, 6]: 7434 (6600–8282) mU/(min·L); Cmax (maximum insulin concentration) [1, 6]: 60.2 (56.2–69.7) mU/L; MRT (mean residence time) [1, 6]: 112.4 (104.1–124.3) min; t50% (early) (time to reach 50% of Cmax before peak) [1, 6]: 15.7 (12.2–25.6) min; t50% (late) (time to reach 50% of Cmax after peak) [1, 6]: 119.3 (98.8–152.7) min; tmax (time to maximum insulin concentration) [1, 6]: 32.5 (25.0–50.0) min; AUC0–300 (area under the insulin concentration curve, 0 to 300 min) [1, 7]: 8175 (7194–8538) mU/(min·L); Cmax (maximum insulin concentration) [1, 7]: 93.6 (73.9–104.4) mU/L; MRT (mean residence time) [1, 7]: 89.0 (76.9–91.7) min; t50% (early) (time to reach 50% of Cmax before peak) [1, 7]: 12.4 (10.3–14.2) min; t50% (late) (time to reach 50% of Cmax after peak) [1, 7]: 74.8 (66.7–76.2) min; tmax (time to maximum insulin concentration) [1, 7]: 25.0 (25.0–30.0) min; AUC0–300 (area under the insulin concentration curve, 0 to 300 min) [1, 8]: 7253 (5949–7625) mU/(min·L); Cmax (maximum insulin concentration) [1, 8]: 72.6 (54.1–91.0) mU/L; MRT (mean residence time) [1, 8]: 88.7 (85.7–110.5) min; t50% (early) (time to reach 50% of Cmax before peak) [1, 8]: 11.5 (8.2–13.1) min; t50% (late) (time to reach 50% of Cmax after peak) [1, 8]: 69.3 (68.2–88.3) min; tmax (time to maximum insulin concentration) [1, 8]: 25.0 (25.0–30.0) min; AUC0–300 (area under the insulin concentration curve, 0 to 300 min) [1, 9]: 6684 (6402–8342) mU/(min·L); Cmax (maximum insulin concentration) [1, 9]: 92.3 (78.4–101.5) mU/L; MRT (mean residence time) [1, 9]: 75.7 (66.7–87.0) min; t50% (early) (time to reach 50% of Cmax before peak) [1, 9]: 11.6 (9.5–14.2) min; t50% (late) (time to reach 50% of Cmax after peak) [1, 9]: 62.5 (60.7–68.8) min; tmax (time to maximum insulin concentration) [1, 9]: 25.0 (25.0–25.0) min; AUC0–300 (area under the insulin concentration curve, 0 to 300 min) [1, 10]: 6603 (5822–6773) mU/(min·L); Cmax (maximum insulin concentration) [1, 10]: 80.9 (79.0–84.0) mU/L; MRT (mean residence time) [1, 10]: 75.4 (62.2–98.6) min; t50% (early) (time to reach 50% of Cmax before peak) [1, 10]: 12.3 (11.5–16.4) min; t50% (late) (time to reach 50% of Cmax after peak) [1, 10]: 63.5 (57.5–77.9) min; tmax (time to maximum insulin concentration) [1, 10]: 25.0 (20.0–30.0) min; decline of AUC0–300 from days 0 to 7 ([1]; pooled data from both IIS groups, 0.15 U/kg bolus): ~24%; severe or serious adverse events [2]: No severe or serious adverse events

— PMC9894594, “Progressive Acceleration of Insulin Exposure Over 7 Days of Infusion Set Wear” (Diabetes Technology & Therapeutics, 2023)
